Results published in the supplement of paper PMC10724198.
± gives the standard deviation of the averaged measurements.

Assays:
Saccharomyces cerevisiae [1] = experiment: protein stability index of tFT-peptide fusion (C-terminal peptide) (PSI (0-1 scale)); higher = more stable (slower turnover); settings: genetic background: wild type; temperature: 30 C
Saccharomyces cerevisiae [2] = experiment: as above
Description: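 MPS profiling in S. cerevisiae of the tFT-X12 degron library: putative degron peptides plus stable controls, 12 aa, fused to the C-terminus of a sfGFP-mCherry timer. Cells are FACS-sorted into 8 mCherry/sfGFP bins and deep-sequenced. PSI runs from 0 (unstable) to 1 (stable). Backgrounds are wild type, das1Δ and doa10Δ at 30 °C, and wild type, das1Δ, cdc34-1 and cdc53-1 at 37 °C; 2-3 technical replicates each.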

[3] = genetic background: cdc34-1, temperature: 37 C
[4] = genetic background: cdc53-1, temperature: 37 C
[5] = genetic background: das1 deletion, temperature: 30 C
[6] = genetic background: das1 deletion, temperature: 37 C
[7] = genetic background: doa10 deletion, temperature: 30 C
[8] = genetic background: wild type, temperature: 30 C
[9] = genetic background: wild type, temperature: 37 C
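Further: PSI is a weighted mean of sequencing reads over stability bins, variants kept only with over 10 reads, mCherry proximal and sfGFP distal, peptide attached via GGGS linker.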

Row | Sequence | protein stability index (Saccharomyces cerevisiae [1]) | protein stability index (Saccharomyces cerevisiae [2]; [3]) | protein stability index (Saccharomyces cerevisiae [2]; [4]) | protein stability index (Saccharomyces cerevisiae [2]; [5]) | protein stability index (Saccharomyces cerevisiae [2]; [6]) | protein stability index (Saccharomyces cerevisiae [2]; [7]) | protein stability index (Saccharomyces cerevisiae [2]; [8]) | protein stability index (Saccharomyces cerevisiae [2]; [9])
1 | GILLLLISRVVF | 0.371 ± 0.011 | 0.278 ± 0.032 | 0.373 ± 0.025 | 0.229 ± 0.047 | 0.469 ± 0.0056 | 0.197 ± 0.039 | 0.227 ± 0.021 | 0.413 ± 0.0093
2 | GILVVAASICYV | 0.447 ± 0.018 | 0.451 ± 0.021 | 0.48 ± 0.02 | 0.355 ± 0.031 | 0.52243 ± 0.00038 | 0.342 ± 0.0088 | 0.359 ± 0.017 | 0.488 ± 0.015
3 | GKKKREWKKNRI | 0.382 ± 0.021 | 0.6893 ± 0.00074 | 0.733 ± 0.0097 | 0.645 ± 0.022 | 0.711 ± 0.013 | 0.217 ± 0.026 | 0.257 ± 0.041 | 0.552 ± 0.0071
4 | GLCLFLIGVFSV | 0.4425 ± 0.0022 | 0.224 ± 0.0031 | 0.313 ± 0.06 | 0.246 ± 0.039 | 0.439 ± 0.022 | 0.2104 ± 0.0019 | 0.237 ± 0.023 | 0.381 ± 0.026
5 | GLFAVWVVGVWC | 0.212 ± 0.052 | 0.0437 ± 0.0013 | 0.137 ± 0.052 | 0.139 ± 0.031 | 0.219 ± 0.0058 | 0.0955 ± 0.013 | 0.111 ± 0.045 | 0.202 ± 0.011
6 | GLFLLWWLGWLV | 0.422 ± 0.036 | 0.63 ± 0.011 | 0.645 ± 0.043 | 0.468 ± 0.022 | 0.651 ± 0.023 | 0.333 ± 0.02 | 0.376 ± 0.02 | 0.5187 ± 0.0047
7 | GLFLYCCLVSLL | 0.283 ± 0.011 | 0.192 ± 0.031 | 0.321 ± 0.0044 | 0.25 ± 0.025 | 0.413 ± 0.018 | 0.191 ± 0.00083 | 0.193 ± 0.019 | 0.33 ± 0.0091
8 | GLLLVWAALGFV | 0.3431 ± 0.00066 | 0.343 ± 0.033 | 0.4444 ± 0.0018 | 0.28 ± 0.019 | 0.458 ± 0.006 | 0.221 ± 0.007 | 0.251 ± 0.043 | 0.439 ± 0.0095
9 | GLVVWWLSGWLW | 0.373 ± 0.0071 | 0.249 ± 0.034 | 0.435 ± 0.05 | 0.269 ± 0.023 | 0.428 ± 0.0078 | 0.221 ± 0.026 | 0.276 ± 0.025 | 0.425 ± 0.048
10 | GMGHLSNVCLKT | 0.597 ± 0.17 | 0.689 ± 0.008 | 0.765 ± 0.0086 | 0.639 ± 0.012 | 0.726 ± 0.0093 | 0.636 ± 0.026 | 0.645 ± 0.019 | 0.706 ± 0.027
11 | GRLDHWNKHKYI | 0.184 ± 0.0029 | 0.528 ± 0.031 | 0.687 ± 0.032 | 0.64 ± 0.0064 | 0.783 ± 0.024 | 0.104 ± 0.013 | 0.0786 ± 0.026 | 0.14 ± 0.032
12 | GRWVLALCLVCG | 0.289 ± 0.0051 | 0.165 ± 0.0068 | 0.199 ± 0.0044 | 0.202 ± 0.026 | 0.312 ± 0.0066 | 0.164 ± 0.0086 | 0.194 ± 0.026 | 0.273 ± 0.0044
13 | GSLLNLSLRWLV | 0.242 ± 0.0062 | 0.626 ± 0.012 | 0.7289 ± 0.0067 | 0.6638 ± 0.0066 | 0.739 ± 0.0077 | 0.13932 ± 9.1e-05 | 0.138 ± 0.022 | 0.226 ± 0.0075
14 | GTMGWYSISRRL | 0.519 ± 0.078 | 0.692 ± 0.052 | 0.754 ± 0.025 | 0.681 ± 0.013 | 0.746 ± 0.012 | 0.6585 ± 0.004 | 0.646 ± 0.022 | 0.729 ± 0.0091
15 | GVCRFFCLVFCS | 0.466 ± 0.036 | 0.544 ± 0.02 | 0.5349 ± 0.0021 | 0.507 ± 0.049 | 0.515 ± 0.018 | 0.494 ± 0.013 | 0.441 ± 0.018 | 0.4723 ± 0.003
16 | GVCSFFVCVFFV | 0.291 ± 0.0064 | 0.195 ± 0.0042 | 0.319 ± 0.034 | 0.233 ± 0.036 | 0.41 ± 0.005 | 0.162 ± 0.008 | 0.177 ± 0.024 | 0.303 ± 0.0089
17 | GVFLVWWVGFWV | 0.374 ± 0.057 | 0.257 ± 0.025 | 0.401 ± 0.021 | 0.25 ± 0.035 | 0.431 ± 0.014 | 0.223 ± 0.0082 | 0.238 ± 0.029 | 0.455 ± 0.047
18 | GVLFHIVLHFMV | 0.27 ± 0.061 | 0.24 ± 0.045 | 0.277 ± 0.01 | 0.255 ± 0.028 | 0.391 ± 0.0053 | 0.199 ± 0.017 | 0.194 ± 0.023 | 0.305 ± 0.029
19 | GVMSICRWMISV | 0.374 ± 0.014 | 0.415 ± 0.0094 | 0.427 ± 0.012 | 0.325 ± 0.042 | 0.4914 ± 0.0034 | 0.263 ± 0.013 | 0.275 ± 0.035 | 0.439 ± 0.017
20 | GVQFRRPLIPIY | 0.445 ± 0.082 | 0.514 ± 0.0065 | 0.4877 ± 0.0027 | 0.358 ± 0.03 | 0.5467 ± 0.0036 | 0.325 ± 0.011 | 0.35 ± 0.025 | 0.517 ± 0.0099

Row | Sequence | protein stability index (Saccharomyces cerevisiae [1]) | protein stability index (Saccharomyces cerevisiae [2]; [3]) | protein stability index (Saccharomyces cerevisiae [2]; [4]) | protein stability index (Saccharomyces cerevisiae [2]; [5]) | protein stability index (Saccharomyces cerevisiae [2]; [6]) | protein stability index (Saccharomyces cerevisiae [2]; [7]) | protein stability index (Saccharomyces cerevisiae [2]; [8]) | protein stability index (Saccharomyces cerevisiae [2]; [9])
21 | GVVCVLGFALFV | 0.413 ± 0.08 | 0.403 ± 0.026 | 0.507 ± 0.042 | 0.293 ± 0.046 | 0.495 ± 0.0051 | 0.28 ± 0.014 | 0.3 ± 0.028 | 0.473 ± 0.0053
22 | GWGVFFVMRIQV | 0.34 ± 0.024 | 0.1751 ± 0.00088 | 0.259 ± 0.055 | 0.225 ± 0.02 | 0.367 ± 0.017 | 0.197 ± 0.016 | 0.198 ± 0.024 | 0.301 ± 0.029
23 | GWLVGLGLVFFT | 0.514 ± 0.03 | 0.586 ± 0.018 | 0.664 ± 0.01 | 0.513 ± 0.033 | 0.661 ± 0.014 | 0.488 ± 0.02 | 0.499 ± 0.031 | 0.618 ± 0.011
24 | GWRRRIWLCRLQ | 0.505 ± 0.041 | 0.575 ± 0.018 | 0.741 ± 0.038 | 0.7 ± 0.013 | 0.7939 ± 0.004 | 0.41 ± 0.02 | 0.412 ± 0.036 | 0.662 ± 0.054
25 | GYLFICSWCEGF | 0.427 ± 0.048 | 0.46 ± 0.059 | 0.503 ± 0.01 | 0.363 ± 0.023 | 0.503 ± 0.029 | 0.352 ± 0.028 | 0.346 ± 0.018 | 0.4849 ± 0.0034
26 | HDRLRGVFWRVP | 0.439 ± 0.014 | 0.669 ± 0.066 | 0.739 ± 0.01 | 0.655 ± 0.038 | 0.74321 ± 0.00071 | 0.263 ± 0.015 | 0.308 ± 0.032 | 0.5752 ± 0.0019
27 | HGVRLHTVWVGG | 0.4918 ± 0.0038 | 0.55 ± 0.029 | 0.559 ± 0.026 | 0.413 ± 0.011 | 0.597 ± 0.0065 | 0.347 ± 0.0076 | 0.4 ± 0.033 | 0.5437 ± 0.005
28 | HLKKKLKIRLIN | 0.238 ± 0.031 | 0.488 ± 0.16 | 0.685 ± 0.02 | 0.645 ± 0.011 | 0.698 ± 0.036 | 0.108 ± 0.01 | 0.116 ± 0.02 | 0.171 ± 0.018
29 | HSRALLPYLSYH | 0.518 ± 0.029 | 0.684 ± 0.04 | 0.753 ± 0.016 | 0.651 ± 0.021 | 0.7732 ± 0.007 | 0.408 ± 0.013 | 0.388 ± 0.021 | 0.558 ± 0.012
30 | HTYSFRLLFIFL | 0.388 ± 0.05 | 0.378 ± 0.031 | 0.456 ± 0.016 | 0.328 ± 0.035 | 0.4762 ± 0.0044 | 0.381 ± 0.013 | 0.321 ± 0.022 | 0.45677 ± 0.00022
31 | HVPPVFQASLSP | 0.747 ± 0.037 | 0.675 ± 0.072 | 0.7368 ± 0.0055 | 0.662 ± 0.014 | 0.743 ± 0.015 | 0.662 ± 0.011 | 0.667 ± 0.017 | 0.7131 ± 0.0057
32 | ICFFQGVVVLFR | 0.407 ± 0.0077 | 0.353 ± 0.033 | 0.403 ± 0.005 | 0.312 ± 0.026 | 0.48 ± 0.014 | 0.3653 ± 0.0027 | 0.303 ± 0.044 | 0.4521 ± 0.0013
33 | IFFVLVFFPGFF | 0.443 ± 0.06 | 0.483 ± 0.036 | 0.541 ± 0.022 | 0.366 ± 0.035 | 0.548 ± 0.014 | 0.359 ± 0.023 | 0.374 ± 0.0071 | 0.506 ± 0.012
34 | IFHWLYLLIALI | 0.309 ± 0.014 | 0.459 ± 0.025 | 0.497 ± 0.015 | 0.436 ± 0.027 | 0.524 ± 0.0054 | 0.2701 ± 0.0025 | 0.254 ± 0.029 | 0.312 ± 0.014
35 | IFLKFGLLRSLL | 0.488 ± 0.026 | 0.9386 ± 0.006 | 0.8936 ± 0.0072 | 0.744 ± 0.012 | 0.85 ± 0.031 | 0.6161 ± 0.0027 | 0.628 ± 0.046 | 0.792 ± 0.053
36 | IGMVSELLLFYP | 0.72 ± 0.017 | 0.721 ± 0.047 | 0.7374 ± 0.0073 | 0.671 ± 0.022 | 0.7676 ± 0.0068 | 0.63 ± 0.0085 | 0.667 ± 0.045 | 0.73 ± 0.008
37 | IGSFYVLSFICQ | 0.475 ± 0.02 | 0.593 ± 0.043 | 0.61 ± 0.018 | 0.454 ± 0.021 | 0.626 ± 0.019 | 0.438 ± 0.024 | 0.458 ± 0.043 | 0.592 ± 0.014
38 | IHTFSVVVVVAA | 0.163 ± 0.022 | 0.0536 ± 0.037 | 0.0437 ± 0.026 | 0.128 ± 0.029 | 0.135 ± 0.0088 | 0.0749 ± 0.0091 | 0.114 ± 0.031 | 0.128 ± 0.03
39 | IIFACFYGVFLM | 0.187 ± 0.0052 | 0.0485 ± 0.025 | 0.0619 ± 0.03 | 0.141 ± 0.019 | 0.169 ± 0.024 | 0.282 ± 0.052 | 0.0949 ± 0.036 | 0.109 ± 0.0083
